# Measured values taken from the RNAGym collection of RNA variant scans (doi:10.7554/elife.80360).
# B1: Hairpin Ribozyme (parent)
# chain: GUCCUCUUUCACGUGCGCGUGAAAGAGAGAAGUGAACCAGAGAAACACACGUUGUGGUAUAUUACCUGGUA
# Variants of: B1
# Assay: self-cleavage, relative activity (ratio to wild type); higher = more cleavage; co-transcriptional
row,Variant,self-cleavage
1,G13U A44G,0.199
2,G13U A44C,0.0986
3,G13U A49G,0.483
4,G13C G40A,0.299
5,G13C G40C,0.11
6,U14G A59C,0.0613
7,U14G A59U,0.183
8,U14C A49G,0.553
9,G13U U52G,0.623
10,U14C A24G,0.81
11,U14C A24U,0.545
12,U14C A24C,0.943
13,G13A G54U,0.42
14,G13A G54C,0.346
15,G13C A61G,0.164
16,G13A C48G,0.118
17,G13A C48U,0.22
18,G13C G25A,0.448
19,G13C G25U,0.436
20,G13U A43G,0.186
21,G13U A43U,0.127
22,G13U G21C,0.431
23,G13U G21A,0.595
24,G13U G57C,0.173

row,Variant,self-cleavage
1,G13U G57U,0.202
2,U14G U52G,0.507
3,U14C A41U,1.34
4,G13U U63G,0.257
5,G13U C18G,0.722
6,U14A U20C,1
7,U14A U20G,0.663
8,G13C G51U,0.61
9,U14G A31C,0.267
10,G13U C46A,0.193
11,G13U C16G,0.655
12,U14C A36G,1.44
13,U14C A36C,0.476
14,U14C A36U,0.844
15,U14A G17U,0.96
16,U14A G17A,1.03
17,U14C C37A,0.245
18,U14C C37G,0.319
19,G13U G51U,0.887
20,G13U G51C,0.745
21,G13A U62G,0.106
22,G13C A35G,0.801
23,G13C A35U,0.552
24,G13C A31G,0.515

row,Variant,self-cleavage
1,G13C A31C,0.227
2,U14C G25C,0.728
3,U14C G25A,0.734
4,U14G C46G,0.131
5,U14G A45G,0.0744
6,G13U C50U,0.268
7,U14C U60C,1.13
8,U14G C65U,0.316
9,U14G A36G,1.11
10,U14G A24G,0.747
11,G13C G34C,1.1
12,G13C G34U,1.1
13,U14A A39G,0.345
14,U14A A22G,0.762
15,U14A A22U,0.715
16,G13C U62A,0.143
17,G13C U62G,0.185
18,G13C G21U,0.49
19,G13C A30U,0.14
20,G13A G15C,0.753
21,G13A G15U,1.1
22,G13A U53G,0.597
23,G13C G27C,0.161
24,G13U,0.763

row,Variant,self-cleavage
1,G13C,0.681
2,U14A A61C,0.331
3,U14C U70G,0.679
4,G13A C65G,0.238
5,G13A U70C,0.615
6,U14G A30U,0.175
7,U14C A26U,0.418
8,U14C A26G,0.919
9,U14C A26C,0.727
10,U14G,0.813
11,U14A,0.956
12,U14C,0.982
13,U14A G27U,0.192
14,U14A G27A,0.39
15,U14A G27C,0.196
16,U14G C18U,0.7
17,U14C G54U,0.541
18,U14C G54A,0.509
19,G13A G32C,0.136
20,G13A G32A,0.0965
21,U14G U55G,0.273
22,G13U U62A,0.179
23,U14A A24U,0.644
24,G13U G19A,0.73

row,Variant,self-cleavage
1,G13U U58C,0.919
2,G13U U58A,0.808
3,U14A G42A,0.108
4,U14G A61G,0.0735
5,U14G A61C,0.257
6,U14G A61U,0.2
7,U14G A39U,0.285
8,G13U U53A,0.777
9,U14A A30G,0.165
10,U14A A30U,0.156
11,U14A A30C,0.222
12,U14A A47G,0.153
13,G13C A64U,0.128
14,G13C A64G,0.448
15,U14G G69C,0.238
16,U14A U63A,0.162
17,U14G C66A,0.0772
18,G13C A24U,0.735
19,G13C G57U,0.164
20,U14A G19A,0.756
21,U14G G29A,0.0483
22,U14G G29U,0.151
23,U14G U33C,0.0267
24,U14G U33G,0.127

row,Variant,self-cleavage
1,U14G U33A,0.116
2,G13A U60A,0.714
3,G13A U60G,0.374
4,G13A U63C,0.175
5,G13A U63G,0.0786
6,G13A U20C,0.902
7,U14C U63G,0.0837
8,G13C A44G,0.127
9,U14A G57C,0.132
10,U14A G57U,0.195
11,G13C A23G,0.373
12,G13C A23U,0.491
13,G13C A23C,0.364
14,G13C U53G,0.245
15,U14A C50A,0.13
16,U14A C50U,0.397
17,G13C A59G,0.13
18,G13A G27C,0.217
19,G13A G27A,0.462
20,G13U G15U,0.941
21,U14G U53A,0.835
22,G13U C37G,0.384
23,G13U C37A,0.249
24,G13U C37U,0.443

row,Variant,self-cleavage
1,G13A G25U,0.512
2,G13C C38U,0.384
3,G13C C38A,0.2
4,G13C C38G,0.179
5,G13U U20A,0.73
6,G13U U20C,1.03
7,G13C A26U,0.406
8,U14A A23U,0.701
9,U14G G56C,0.164
10,U14G G51C,0.734
11,G13C C16G,0.407
12,G13A G34C,1.33
13,U14G A23G,0.703
14,U14A G34U,1.47
15,U14G G27U,0.144
16,U14C A28U,0.668
17,G13A G68A,0.275
18,U14A A31U,0.124
19,U14G A41G,0.589
20,U14G C48A,0.165
21,G13C C48U,0.108
22,U14C C50A,0.0893
23,U14A G51C,0.89
